Laboratory results reported in PMC12000511, “Molecular basis for the assembly of the Vps5-Vps17 SNX-BAR proteins with Retromer” (Nature Communications, 2025).
Where no end group is shown, it is not given here.

Key:
[1] = target: ctRetromer (Chaetomium thermophilum Retromer trimer of ctVps35, ctVps26 and ctVps29) (Chaetomium thermophilum); assay: ITC; Microcal PEAQ ITC, 25 °C, 50 mM Tris-HCl pH 7.5, 200 mM NaCl, 2 mM β-ME; Vps5/Vps17/SNX1 construct or peptide (200-400 µM) titrated into 10-15 µM Retromer or Vps29; single-site model, N set to 1.0 if close to 1
[2] = target: ctVps29 (Chaetomium thermophilum); assay: as above
[3] = target: ctVps5 (full length, homodimer) (Chaetomium thermophilum); assay: mass photometry; Refeyn OneMP, low ionic strength: 50 mM Tris-HCl pH 7.5, 40 mM NaCl, 2 mM β-ME
[4] = target: ctVps5 (full length, homodimer) (Chaetomium thermophilum); assay: mass photometry; Refeyn OneMP, 50-100 nM protein, 50 mM Tris-HCl pH 7.5, 200 mM NaCl, 2 mM β-ME; ctRetromer and ctVps5 combined in a 1:1 ratio
hRetromer = target: T1, hRetromer (Homo sapiens, UniProt Q96QK1+Q9UBQ0); assay: GST pull-down with hRetromer; type: binding; settings: 1 nmol GST-tagged protein, 2 nmol hRetromer, overnight 4 °C, SDS-PAGE/blot
T1 construct: GST (N); made in house; host or cells: E. coli BL21(DE3) (general statement for bacterial constructs)
Protocol: GST pull-down assay of scVps5 and hRetromer was performed similar to the one described above with some modifications. The purified hRetromer at 2 nmol was mixed with 1 nmol GST-tagged hFam21R19–R21, scVps5_70–128 LF native, scVps5_70–128 LF mutant or GST alone separately overnight at 4 °C before added to fresh glutathione Sepharose pre-equilibrated with buffer as mentioned above. In all cases, beads were washed five times with the equilibration buffer and bounds proteins were analysed by SDS-PAGE gels.

[5] = target: ctRetromer (Chaetomium thermophilum Retromer trimer of ctVps35, ctVps26 and ctVps29) (Chaetomium thermophilum); assay: ITC; as a1, with 100 µM of the control cyclic peptide RT-D1 L7E in the cell: 200 µM ctVps5 titrated into 10 µM ctRetromer
[6] = target: ctRetromer (Chaetomium thermophilum Retromer trimer of ctVps35, ctVps26 and ctVps29) (Chaetomium thermophilum); assay: ITC; as a1, with 100 µM of the cyclic peptide RT-D3 in the cell: 200 µM ctVps5 or GST-ctVps5(51–100) titrated into 10 µM ctRetromer or ctVps29
[7] = tested on: scRetromer and scSNX-BAR on supported membrane tubes; assay: Supported membrane tube (SMT) assay; type: biochemical, Saccharomyces cerevisiae
Protocol: Supported membrane tubes were generated as described[46]. Briefly, glass coverslips were first washed with 3 M NaOH for 5 min and rinsed with water before a 60 min treatment with piranha solution (95% H2SO4/30% H2O2 3:2 v/v). Coverslips were rinsed with water and dried on a heat block at 90 °C. Coverslips were then silanized with 3-glycidyloxypropyltrimethoxysilane (Catalogue no. 440167, Sigma) for 5 h under vacuum, rinsed with acetone and dried. Polyethylene glycol coating was done by placing the coverslips in a beaker containing PEG400 (Sigma) at 90 °C for 60 h. Coverslips were washed with distilled water and stored for up to 2 months at room temperature in a closed container.
To generate supported membrane tubes, lipids were mixed from 10 mg/mL stocks in a glass vial and diluted to a final concentration of 1 mg/mL in chloroform. The same lipid mix was used throughout this study (5% PI(3)P, 15% DOPS, 0.1% fluorescent lipid tracer (Cy5.5 PE or Texas red DHPE), 79.5% egg-PC). Lipids were then spotted (typically 1 µL, corresponding to about 1 nmol) on the coverslips and dried for 30 min under vacuum. The coverslip was mounted on an IBIDI 6-channel µ-slide (µ-Slide VI 0.4. IBIDI, catalog no: 80606). Lipids were hydrated for 15 min with buffer (PBS) and SMTs were generated by injecting PBS into the chamber using an Aladdin Single-Syringe Pump (World Precision Instruments, model n°. AL-1000) at a flow rate of 1,5 mL/min for 5 min. SMTs were left to stabilize without flow for 5 min before the start of the experiment. Protein stocks (typically 1–2 µM) were first diluted in PBS and then injected in the chamber at a flow rate of 80 µL per minute. Cyclic peptides were added to the proteins from a 30 mM stock in DMSO to a final concentration of 300 µM. the protein/peptide mix was incubated for 1 min at room temp (23 °C) before being added to the SMTubes.

Vps10 = assay: Vps10-mNeonGreen localisation/recycling in vps5Δ yeast (Pearson colocalization with vacuole); type: cell-based, Saccharomyces cerevisiae; settings: vps5Δ cells complemented with Vps5 variant on plasmid; confocal microscopy
From the text: Fig. 7 The interaction of Retromer with the Vps5 N-terminal domain is required for Vps10 recycling. A AlphaFold2 predicted structure of the scVps35–scVps29–scVps5 complex highlighting residues targeted for mutagenesis. B Yeast cells (SEY6210) carrying a Vps5 deletion, and expressing a copy of Vam10 (the VAM10 gene is embedded in VPS5 and deleted with it) and Vps10-mNeonGreen were complemented with centromeric plasmids expressing variants of Vps5. These cells were logarithmically grown in SD-URA medium, stained with FM4−64 and analysed by confocal microscopy. Single slices of the images are shown. Scale bar: 1 μm. Arrowheads indicate regions of Vps10 vacuolar localisation, and open arrowheads indicate Vps10 localised to pre-vacuolar comparmtnets. C Graph representation showing the Pearson Colocalizastion Coefficient between the vacuolar and Vps10 signals of Vps5 deleted yeast cells shown in B quantified using JACoP (Just Another Co-localization Plugin) implemented in ImageJ. Error bars are the standard deviations calculated from ≥ 70 measurements from 2 experiments.
The Saccharomyces cerevisiae strains are derived from SEY6210 (Supplementary Table 3). Vps5 and Pep4 deletions, Vps5 N-terminal point mutations and endogenous tagging of Vps10 was conducted based on the CRISPR-Cas9 system. The vector co-expressing single guide RNA and Cas9 enzyme was co-transformed into yeast cells with double-stranded oligonucleotides as the templates for homologous recombination (Supplementary Table 4). For Vps5 deletion, the template contained 40-bp homology upstream and downstream of its coding sequence. Vps10^mNeonGreen was created by a template comprising its C-terminal region with mutated PAM sequence and fused mNeonGreen tag followed by 40-bp homology region after the stop codon. Vam10 was cloned into pRS305 vector using Not1/Sma1 restriction sites to generate an integrative plasmid that was linearized, transformed and integrated ectopically into the auxotrophic selectable marker LEU2 gene locus. […]

[8] = tested on: yeast vps5Δ cells (SEY6210); assay: Vacuole fragmentation (FM4−64) in vps5Δ yeast; type: cell-based, Saccharomyces cerevisiae; settings: vps5Δ cells complemented with Vps5 variant on plasmid
Protocol: The Saccharomyces cerevisiae strains are derived from SEY6210 (Supplementary Table 3). Vps5 and Pep4 deletions, Vps5 N-terminal point mutations and endogenous tagging of Vps10 was conducted based on the CRISPR-Cas9 system. The vector co-expressing single guide RNA and Cas9 enzyme was co-transformed into yeast cells with double-stranded oligonucleotides as the templates for homologous recombination (Supplementary Table 4). For Vps5 deletion, the template contained 40-bp homology upstream and downstream of its coding sequence. Vps10^mNeonGreen was created by a template comprising its C-terminal region with mutated PAM sequence and fused mNeonGreen tag followed by 40-bp homology region after the stop codon. Vam10 was cloned into pRS305 vector using Not1/Sma1 restriction sites to generate an integrative plasmid that was linearized, transformed and integrated ectopically into the auxotrophic selectable marker LEU2 gene locus.
The VPS5 gene with its native promoter, C-terminally fused HA-tag and ADH1 terminator was cloned into pRS314 centromeric plasmid. A point mutation was introduced in the start codon of VAM10 (M-to-I) by site-directed mutagenesis, because VAM10 overlaps with VPS5[71]. […] For the N-terminal deletion mutant of Vps5 (Δ1-280), residues 838–2025 of VPS5 were amplified and subcloned into the pRS314-VPS5-HA plasmid described above using Nco1/Sma1 restriction sites. The plasmid bearing the PL motif mutation (L196R) was generated using site-directed mutagenesis in the pRS314-VPS5-HA plasmid. To abolish all three putative binding sites to Retromer, a synthetic gene fragment of VPS5 (ordered from GenScript) containing the following mutations—start codon of VAM10 sequence(M-to-I), L196R, L121G, F122G and F161E—was subcloned into the pRS314-VPS5-HA plasmid using Nco1/Stu1 restriction sites.
Vacuoles were stained with FM4−64. Cells were grown in SD^-URA medium to an OD600 between 0.6 and 1.0. The culture was diluted to an OD600 of 0.4, and FM4−64 was added to a final concentration of 10 µM from a 10 mM stock in DMSO. […]

Question: “GST-ctVps5_(51–100) (domain or fragment)” was tested. Which Kd [1] did it give?
Answer: 660 nM

Question: What about the dH [1] of the same molecule?
Answer: -4.1 kcal/mol

Question: And the Kd [2]?
Answer: 1600 nM

Question: What about the dH [2] of the same molecule?
Answer: -2.16 kcal/mol

Question: Which stoichiometry N (ctRetromer per ctVps5 dimer) [3] does the source give for “ctRetromer (Chaetomium thermophilum Retromer trimer of ctVps35, ctVps26 and ctVps29) (complex)” here?
Answer: 2

Question: What about the stoichiometry N (ctRetromer per ctVps5 dimer) [4] of the same molecule?
Answer: 1

Question: Which results are given for “GST-tagged scVps5_70–128: GST-tagged S. cerevisiae Vps5 residues 70–128 containing the LF motif (GLSVAGNPQLEEHDNSKADDLINSLAPEQDPIADLKNSTTQFIATRESGGALFTGNANS; not fully specified (N-terminus); also: GST fusion, end not given here)”?
Answer: binding to hRetromer in GST pull-down (hRetromer): only binds weakly to VPS35; binding to hRetromer in GST pull-down (hRetromer; listed as GST- scVps570-128): binds weakly to hRetromer

Question: For “ctVps5 (full length, homodimer) (natural protein)”, which Kd with 100 µM RT-D1 L7E (control peptide) present [5] is on record?
Answer: 750 nM

Question: And the dH [5]?
Answer: -7.53 kcal/mol

Question: And the Kd with 100 µM RT-D3 (competitor) present [6]?
Answer: 9410 nM

Question: What about the dH [6] of the same molecule?
Answer: -10.5 kcal/mol

Question: And the stoichiometry N [4]?
Answer: 2

Question: What about the Kd [1] of the same molecule?
Answer: 720 nM

Question: What about the dH [1] of the same molecule?
Answer: -8.5 kcal/mol

B1: quadruple mutant Vps5 (L121G/F122G/F161E/L196R): scVps5 mutant altering PL, [K/R]Φ and LFa sites (protein, UniProt Q92331 1-675, looked up, variant L121G F122G F161E L196R)
Vacuolar protein …: MDYEDNLEAPVWDELNHEGDKTQSLVSNSIESIGQISTNEERKDNELLETTASFADKIDLDSAPEWKDPGLSVAGNPQLEEHDNSKADDLINSLAPEQDPIADLKNSTTQFIATRESGGAGGTGNANSPLVFDDTIYDANTSPNTSKSISGRRSGKPRILEDSARAQRNSKRNHSLKAKRTTASDDTIKTPFTDPRKKAEKENEFVEEPLDDRNERRENNEGKFTASVEKNILEQVDRPLYNLPQTGANISSPAEVEENSEKFGKTKIGSKVPPTEKAVAFKVEVKDPVKVGELTSIHVEYTVISESSLLELKYAQVSRRYRDFRWLYRQLQNNHWGKVIPPPPEKQSVGSFKENFIENRRFQMESMLKKICQDPVLQKDKDFLLFLTSDDFSSESKKRAFLTGSGAINDSNDLSEVRISEIQLLGAEDAAEVLKNGGIDAESHKGFMSISFSSLPKYNEADEFFIEKKQKIDELEDNLKKLSKSLEMVDTSRNTLAASTEEFSSMVETLASLNVSEPNSELLNNFADVHKSIKSSLERSSLQETLTMGVMLDDYIRSLASVKAIFNQRSKLGYFLVVIENDMNKKHSQLGKLGQNIHSEKFREMRKEFQTLERRYNLTKKQWQAVGDKIKDEFQGFSTDKIREFRNGMEISLEAAIESQKECIELWETFYQTNL
Question: Which results are given for B1?
Answer: Vps5–Vps17 heterodimer formation of mutant ([7]; quadruple mutant Vps5 with scVps17): do not impair heterodimer formation; coat formation / recruitment on SMTs ([7]; scSNX-BAR and scRetromer on SMTs containing 5% PtdIns(3)P): showed a defect of coat formation; Vps10 recycling/localisation (Vps10): severe Vps10 recycling sorting defect; vacuole fragmentation [8]: strong vacuole fragmentation

B2: wildtype Vps5: S. cerevisiae wildtype Vps5 re-introduced into knockout cells (protein, UniProt Q92331 1-675, looked up)
Vacuolar protein …: MDYEDNLEAPVWDELNHEGDKTQSLVSNSIESIGQISTNEERKDNELLETTASFADKIDLDSAPEWKDPGLSVAGNPQLEEHDNSKADDLINSLAPEQDPIADLKNSTTQFIATRESGGALFTGNANSPLVFDDTIYDANTSPNTSKSISGRRSGKPRILFDSARAQRNSKRNHSLKAKRTTASDDTIKTPFTDPLKKAEKENEFVEEPLDDRNERRENNEGKFTASVEKNILEQVDRPLYNLPQTGANISSPAEVEENSEKFGKTKIGSKVPPTEKAVAFKVEVKDPVKVGELTSIHVEYTVISESSLLELKYAQVSRRYRDFRWLYRQLQNNHWGKVIPPPPEKQSVGSFKENFIENRRFQMESMLKKICQDPVLQKDKDFLLFLTSDDFSSESKKRAFLTGSGAINDSNDLSEVRISEIQLLGAEDAAEVLKNGGIDAESHKGFMSISFSSLPKYNEADEFFIEKKQKIDELEDNLKKLSKSLEMVDTSRNTLAASTEEFSSMVETLASLNVSEPNSELLNNFADVHKSIKSSLERSSLQETLTMGVMLDDYIRSLASVKAIFNQRSKLGYFLVVIENDMNKKHSQLGKLGQNIHSEKFREMRKEFQTLERRYNLTKKQWQAVGDKIKDEFQGFSTDKIREFRNGMEISLEAAIESQKECIELWETFYQTNL
Question: Which results are given for B2?
Answer: Vps10 recycling/localisation (Vps10): localization of Vps10-mNeonGreen on punctate structures; vacuole fragmentation [8]: clear recovery of large vacuoles

B3: Vps5 (L196R): single amino acid substitution in the core PL motif of scVps5 (protein, UniProt Q92331 1-675, looked up, variant L196R)
Vacuolar protein …: MDYEDNLEAPVWDELNHEGDKTQSLVSNSIESIGQISTNEERKDNELLETTASFADKIDLDSAPEWKDPGLSVAGNPQLEEHDNSKADDLINSLAPEQDPIADLKNSTTQFIATRESGGALFTGNANSPLVFDDTIYDANTSPNTSKSISGRRSGKPRILFDSARAQRNSKRNHSLKAKRTTASDDTIKTPFTDPRKKAEKENEFVEEPLDDRNERRENNEGKFTASVEKNILEQVDRPLYNLPQTGANISSPAEVEENSEKFGKTKIGSKVPPTEKAVAFKVEVKDPVKVGELTSIHVEYTVISESSLLELKYAQVSRRYRDFRWLYRQLQNNHWGKVIPPPPEKQSVGSFKENFIENRRFQMESMLKKICQDPVLQKDKDFLLFLTSDDFSSESKKRAFLTGSGAINDSNDLSEVRISEIQLLGAEDAAEVLKNGGIDAESHKGFMSISFSSLPKYNEADEFFIEKKQKIDELEDNLKKLSKSLEMVDTSRNTLAASTEEFSSMVETLASLNVSEPNSELLNNFADVHKSIKSSLERSSLQETLTMGVMLDDYIRSLASVKAIFNQRSKLGYFLVVIENDMNKKHSQLGKLGQNIHSEKFREMRKEFQTLERRYNLTKKQWQAVGDKIKDEFQGFSTDKIREFRNGMEISLEAAIESQKECIELWETFYQTNL
Question: With B3 as the molecule, how does the “Vps10 recycling/localisation” value (Vps10) read?
Answer: partial defect in Vps10 recycling

Question: And the “vacuole fragmentation” value [8]?
Answer: partial rescue of vacuole fragmentation
